Measurements: patent publication EP1454989A1

How the values were obtained:
[1] = molecular target: human CD81 (human) (UniProt P60033); assay: cell-based or functional assay
[2] = molecular target: HCV E2 glycoprotein of genotype 1a (hepatitis C virus genotype 1a) (UniProt P27958); assay: cell-based or functional assay

Substance	inhibition of infection by HCVpp of genotypes 1a and 1b (target cells pre-incubated with antibody at 30 µg/ml) [1] [%]	inhibition of infectivity of HCVpp on Huh-7 cells (polypeptide at 4, 8, 16 µg/ml pre-incubated with the pseudo-particles) [2] [%]
JS-81 anti-CD81 monoclonal antibody	> 90	–
recombinant GST-fusion polypeptide encompassing the large extra-cellular loop (LEL) of human CD81 (from UniProt P60033 113-201)	–	38 to 54
